Target: T1, GST-RbC, Rb fusion protein encoding amino acids 780-928 (COOH-terminal domain only) (UniProt P06400)
T1 sequence (looked up): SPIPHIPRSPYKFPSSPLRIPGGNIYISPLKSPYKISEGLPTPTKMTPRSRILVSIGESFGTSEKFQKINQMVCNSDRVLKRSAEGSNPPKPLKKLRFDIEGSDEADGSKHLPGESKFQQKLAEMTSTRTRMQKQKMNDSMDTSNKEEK
Test: in vitro translated Rak on GST-RbC beads, SDS-PAGE and autoradiography (FIG. 5B, upper panel)

B1: Rak protein (p54^rak), full-length nuclear tyrosine kinase (enzyme)
chain: MSNICQRLWEYLEPYLPCLSTEADKSTVIENPGALCSPQSQRHGHYFVALFDYHAPTAEELSFRAGDKLQVLDTLHEGWWFARHLEKRRDGSSQQLQGYIPSNYVAEDRSLQAEAWFFGAIRRSDAEKQLLYSENKTGSFLIRESESQKGEFSLSVLDGAVVKHYRIKRLDEGGFFLTRRRIFSTLNEFVSHYTKTSDGLCVKLGKPCLKIQVPAPFDLSYKTVDQWEIDRNSIQLLKRLGSGQFGEVWEGLWNNTTPVAVKTLKPGSMDPNDFLREAQIMKNLRHPKLIQLYAVCTLEDPIYIITELMRHGSLQEYLQNDTGSKIHLTQQVDMAAQVASGMAYLESRNYIHRDLAARNVLVGEHNIYKVADFGLARVFKVDNEDIYESRHEIKLPVKWTAPEAIRSNKFSIKSDVWSFGILLYEIITYGKMPYSGMTGAQVIQMLAQNYRLPQPSNCPQQFYNIMLECWNAEPKERPTFETLRWKLEDYFETDSSYSDANNFIR
fold less binding than to the RbABC fusion protein: 5 fold less
